Here are results for one molecule from paper PMC8326396, “Label-free Electrochemical Impedance Spectroscopy Aptasensor for Ultrasensitive Detection of Lung Cancer Biomarker Carcinoembryonic Antigen”.

This data set has as its target carcinoembryonic antigen (CEA) (UniProt P06731 35-685). Kind of data set: electrochemical impedance spectroscopy; CEA 0.2-15.0 ng/ml linear range; LOD 0.085 ng/ml (not a Kd); CEA incubated on electrode 1 h at 37 C (70 min found optimal), wash with 0.01 M [Fe(CN)6] PBS pH 7.4; EIS in 5 mM [Fe(CN)6]3-/4-, 0.1 M PBS pH 7.0, KCl (0.1 M or 1 M, stated inconsistently). The conditions noted are these: protein: commercial.

Chain of carcinoembryonic antigen (CEA) (P06731 35-685): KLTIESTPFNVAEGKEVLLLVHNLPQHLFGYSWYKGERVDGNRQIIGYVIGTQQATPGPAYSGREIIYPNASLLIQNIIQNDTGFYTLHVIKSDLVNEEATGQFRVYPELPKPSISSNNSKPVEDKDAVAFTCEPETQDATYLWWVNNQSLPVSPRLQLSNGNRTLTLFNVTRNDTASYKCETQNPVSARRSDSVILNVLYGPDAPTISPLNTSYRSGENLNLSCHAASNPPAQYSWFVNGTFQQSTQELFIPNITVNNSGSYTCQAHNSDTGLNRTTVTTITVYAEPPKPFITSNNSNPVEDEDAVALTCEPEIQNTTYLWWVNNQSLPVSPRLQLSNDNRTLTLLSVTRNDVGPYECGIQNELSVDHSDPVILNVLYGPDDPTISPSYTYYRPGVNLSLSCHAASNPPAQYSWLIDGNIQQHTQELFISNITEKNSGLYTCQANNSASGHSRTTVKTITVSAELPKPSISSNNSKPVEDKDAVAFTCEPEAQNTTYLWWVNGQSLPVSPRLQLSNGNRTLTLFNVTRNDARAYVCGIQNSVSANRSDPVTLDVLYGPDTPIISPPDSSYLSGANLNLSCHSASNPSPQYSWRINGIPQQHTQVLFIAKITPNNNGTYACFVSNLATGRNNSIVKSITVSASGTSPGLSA

B1: CEA aptamer (CEA-A) (ssDNA)
DNA: ATACCAGCTTATTCAATT
modifications: 5'-SH (thiol)
Turning to B1, the binding result is “binds”.
